Measured values from patent US20190345230A1.

Tests used:
Assay in all cases: cell-based or functional assay
[1] = target: HA protein of influenza B virus B/Xiamen/165/2007 (Victoria lineage) (Influenza B virus B/Xiamen/165/2007)
[2] = target: HA protein of influenza B virus B/Florida/4/2006 (Yamagata lineage) (Influenza B virus B/Florida/4/2006)
[3] = target: HA protein of influenza B virus B/Xiamen/891/2006 (Yamagata lineage) (Influenza B virus B/Xiamen/891/2006)
[4] = target: HA protein of influenza B virus B/Xiamen/N697/2012 (Yamagata lineage) (Influenza B virus B/Xiamen/N697/2012)
[5] = target: HA protein of influenza B virus B/Brisbane/33/2008 (Victoria lineage) (Influenza B virus B/Brisbane/33/2008)
[6] = target: HA protein of influenza B virus B/Hong Kong/330/2001 (Victoria lineage) (Influenza B virus B/Hong Kong/330/2001)
[7] = target: HA protein of influenza B virus B/Xiamen/756/2007 (Yamagata lineage) (Influenza B virus B/Xiamen/756/2007)
[8] = target: HA protein of influenza B virus B/Xiamen/N678/2012 (Victoria lineage) (Influenza B virus B/Xiamen/N678/2012)
[9] = target: HA protein of influenza B virus B/Maryland/1/1959 (Influenza B virus B/Maryland/1/1959) (UniProt P03461)
[10] = target: HA protein of influenza B virus B/Malaysia/2506/2004 (Victoria lineage) (Influenza B virus B/Malaysia/2506/2004)
[11] = target: HA protein of influenza B virus B/Xiamen/3043/2006 (Victoria lineage) (Influenza B virus B/Xiamen/3043/2006)
[12] = target: HA protein of influenza B virus B/Great Lakes/1739/1954 (Influenza B virus B/Great Lakes/1739/1954)
[13] = target: HA protein of influenza B virus B/Brisbane/60/2008 (Victoria lineage) (Influenza B virus B/Brisbane/60/2008)
[14] = target: HA protein of influenza B virus B/Lee/1940 (Influenza B virus B/Lee/1940) (UniProt P03460)
[15] = target: HA protein of B/Singapore/3/1964 (Influenza B virus B/Singapore/3/1964) (UniProt P03464)
[16] = target: HA protein of influenza B virus B/Harbin/7/1994 (Yamagata lineage) (Influenza B virus B/Harbin/7/1994)
[17] = target: HA protein of B/Xiamen/1346/2008 (Victoria lineage) (Influenza B virus B/Xiamen/1346/2008 (Victoria lineage)) (UniProt P22092)
[18] = target: HA protein of influenza B virus B/Taiwan/2/1962 (Influenza B virus B/Taiwan/2/1962)
[19] = target: HA protein of influenza B virus B/Xiamen/N639/2010 (Victoria lineage) (Influenza B virus B/Xiamen/N639/2010)
[20] = target: HA protein of influenza B virus B/Xiamen/1147/2008 (Yamagata lineage) (Influenza B virus B/Xiamen/1147/2008)
[21] = target: HA protein of influenza A virus A/Brisbane/10/2007 (seasonal H3N2) (Influenza A virus A/Brisbane/10/2007 (H3N2))

B1: monoclonal antibody 7G6 (antibody, V domains shown)
VH: EVQLQQSGPELVKPGASVKISCKASGYTFTDYNMHWVKQSLGKSLEWIGYIYPNNGGTGYNQKFESKATLTVDNSSSTAYMELRTLTSEDSAVYYCVRSGAYYFNYLVPYFDYWGQGTTLTVSS
VL: NIVLTQSPASLAVSLGQRATISCRASESVDIYGNSFMHWYQQKPGQPPKLLIYLASKLECGVCARFNGSGCRTDFTLAIDPVEGDDGATYYCQQNYEDPWTFGGGTKLEIK
HI titer (dilution fold) [1]: 12800
Neutralization titer [1]: 12800 titer
HI titer (dilution fold) [2]: > 25600
Neutralization titer [2]: > 25600 titer
HI titer (dilution fold) [3]: > 25600
Neutralization titer [3]: > 25600 titer
HI titer (dilution fold) [4]: > 25600
Neutralization titer [4]: > 25600 titer
HI titer (dilution fold) [5]: 3200
Neutralization titer [5]: > 25600 titer
HI titer (dilution fold) [6]: > 25600
Neutralization titer [6]: > 25600 titer
HI titer (dilution fold) [7]: 12800
Neutralization titer [7]: 12800 titer
HI titer (dilution fold) [8]: 6400
Neutralization titer [8]: 6400 titer
HI titer (dilution fold) [9]: 6400
Neutralization titer [9]: 800 titer
HI titer (dilution fold) [10]: 6400
Neutralization titer [10]: > 25600 titer
HI titer (dilution fold) [11]: 12800
Neutralization titer [11]: 12800 titer
HI titer (dilution fold) [12]: < 100
Neutralization titer [12]: < 100 titer
HI titer (dilution fold) [13]: 3200
Neutralization titer [13]: 12800 titer
HI titer (dilution fold) [14]: 1600
Neutralization titer [14]: 1600 titer
HI titer (dilution fold) [15]: 3200
Neutralization titer [15]: > 25600 titer
HI titer (dilution fold) [16]: < 100
Neutralization titer [16]: < 100 titer
HI titer (dilution fold) [17]: 6400
Neutralization titer [17]: 6400 titer
HI titer (dilution fold) [18]: 12800
Neutralization titer [18]: 12800 titer
HI titer (dilution fold) [19]: 3200
Neutralization titer [19]: 3200 titer
HI titer (dilution fold) [20]: > 25600
Neutralization titer [20]: > 25600 titer
HI titer (dilution fold) [21]: < 100
Neutralization titer [21]: < 100 titer

B2: monoclonal antibody 11B10 (antibody, V domains shown)
VH: EVQLQQSGPELVKPGASVKISCKASGYTFTGYNMHWVKQSHGKSLEWIGKIYPNNGVTGYNQEFRSKATLTVDNSSSTAYMELRSLTSEDSAIYFCVRSGAYYVNYLVPYFDYWGQGTTLTVSS
VL: NIVLTQSPASLAVSPGQRATISCRASESIDIYGNSFMHWYQKKPGQPPKLLIYRASNLESGVPARFNGSGSRTDFTLTIDPVEGDDGATYYCQQNYEDPWTFGGGTKLEIK
HI titer (dilution fold) [1]: 3200
Neutralization titer [1]: 3200 titer
HI titer (dilution fold) [2]: 400
Neutralization titer [2]: 6400 titer
HI titer (dilution fold) [3]: 800
Neutralization titer [3]: 800 titer
HI titer (dilution fold) [4]: 800
Neutralization titer [4]: 800 titer
HI titer (dilution fold) [5]: < 100
Neutralization titer [5]: 800 titer
HI titer (dilution fold) [6]: 800
Neutralization titer [6]: > 25600 titer
HI titer (dilution fold) [7]: 400
Neutralization titer [7]: 400 titer
HI titer (dilution fold) [8]: 400
Neutralization titer [8]: 400 titer
HI titer (dilution fold) [9]: < 100
Neutralization titer [9]: < 100 titer
HI titer (dilution fold) [10]: 3200
Neutralization titer [10]: > 25600 titer
HI titer (dilution fold) [11]: 6400
Neutralization titer [11]: 6400 titer
HI titer (dilution fold) [12]: < 100
Neutralization titer [12]: < 100 titer
HI titer (dilution fold) [13]: < 100
Neutralization titer [13]: 3200 titer
HI titer (dilution fold) [14]: < 100
Neutralization titer [14]: < 100 titer
HI titer (dilution fold) [15]: < 100
Neutralization titer [15]: 800 titer
HI titer (dilution fold) [16]: < 100
Neutralization titer [16]: < 100 titer
HI titer (dilution fold) [17]: 3200
Neutralization titer [17]: 3200 titer
HI titer (dilution fold) [18]: 800
Neutralization titer [18]: 800 titer
HI titer (dilution fold) [19]: 400
Neutralization titer [19]: 400 titer
HI titer (dilution fold) [20]: 800
Neutralization titer [20]: 800 titer
HI titer (dilution fold) [21]: < 100
Neutralization titer [21]: < 100 titer

B3: monoclonal antibody 12G6 (antibody, V domains shown)
VH: EVHLQQSGPELVKPGASVKMSCEASGYTFTDYYVAWVKQSPGESFEWIGRVNPYSGGTSYNQKFKGKATLIVDKSSSTAYMELSSLTSEDSAVYYCARWDYGVYEGYIDYWGQGSALTV
VL: DIQMTQSPASLSVSVGETVTITCRASEKIYSNLAWYQQKEGKSPQLLVYAAIRLADGVPSRFSGSGSGTQFSLKINSLQSEDFGTYYCQHFWGTPLTFGAGTKLELK
HI titer (dilution fold) [1]: < 100
Neutralization titer [1]: 6400 titer
HI titer (dilution fold) [2]: 12800
Neutralization titer [2]: > 25600 titer
HI titer (dilution fold) [3]: < 100
Neutralization titer [3]: 1600 titer
HI titer (dilution fold) [4]: < 100
Neutralization titer [4]: 800 titer
HI titer (dilution fold) [5]: 3200
Neutralization titer [5]: > 25600 titer
HI titer (dilution fold) [6]: 3200
Neutralization titer [6]: > 25600 titer
HI titer (dilution fold) [7]: < 100
Neutralization titer [7]: 1600 titer
HI titer (dilution fold) [8]: < 100
Neutralization titer [8]: 1600 titer
HI titer (dilution fold) [9]: < 100
Neutralization titer [9]: 3200 titer
HI titer (dilution fold) [10]: 3200
Neutralization titer [10]: 12800 titer
HI titer (dilution fold) [11]: < 100
Neutralization titer [11]: 3200 titer
HI titer (dilution fold) [12]: 1600
Neutralization titer [12]: > 25600 titer
HI titer (dilution fold) [13]: 3200
Neutralization titer [13]: > 25600 titer
HI titer (dilution fold) [14]: 6400
Neutralization titer [14]: 6400 titer
HI titer (dilution fold) [15]: 400
Neutralization titer [15]: 6400 titer
HI titer (dilution fold) [16]: 200
Neutralization titer [16]: 3200 titer
HI titer (dilution fold) [17]: < 100
Neutralization titer [17]: 3200 titer
HI titer (dilution fold) [18]: < 100
Neutralization titer [18]: 1600 titer
HI titer (dilution fold) [19]: < 100
Neutralization titer [19]: 3200 titer
HI titer (dilution fold) [20]: < 100
Neutralization titer [20]: 1600 titer
HI titer (dilution fold) [21]: < 100
Neutralization titer [21]: < 100 titer
